Reference: patent US20210221894A1 (DRAGONFLY THERAPEUTICS, published 2021)
Substitutions are numbered along the chain they refer to. Blank lines part the entries; values can stand above or below the binder they belong to.

Assays:
[1] = biological target: T1, recombinant human DLL3 (ELISA coat) (human, UniProt Q9NYJ7 27-492); assay: ELISA, plate coated with recombinant human DLL3 0.5 µg/ml, anti-mouse IgG-HRP
T1 sequence: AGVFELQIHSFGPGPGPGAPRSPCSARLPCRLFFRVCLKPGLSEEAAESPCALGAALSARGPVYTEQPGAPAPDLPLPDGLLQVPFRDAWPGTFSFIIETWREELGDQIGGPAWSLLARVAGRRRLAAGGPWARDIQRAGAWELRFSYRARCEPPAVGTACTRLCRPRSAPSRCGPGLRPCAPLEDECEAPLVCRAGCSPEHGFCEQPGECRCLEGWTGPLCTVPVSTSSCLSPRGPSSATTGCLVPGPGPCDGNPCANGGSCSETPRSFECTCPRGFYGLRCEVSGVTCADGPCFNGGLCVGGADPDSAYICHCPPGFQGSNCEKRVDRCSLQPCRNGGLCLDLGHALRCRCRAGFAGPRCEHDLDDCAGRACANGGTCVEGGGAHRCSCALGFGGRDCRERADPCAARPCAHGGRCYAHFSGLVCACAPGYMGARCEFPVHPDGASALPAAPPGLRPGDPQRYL
Protocol: (§1) To investigate the binding of anti-DLL3 antibodies to human DLL3, wells of high binding flat-bottom plates were coated with recombinant human DLL3 diluted to 0.5 μg/ml. To assess cross-reactivity of the antibodies to DLL1/DLL4, which are closely related family members to DLL3, plates were coated with recombinant human DLL1 diluted to 1 μg/ml, or human DLL4 diluted to 0.5 μg/ml. […] Binding was detected using anti-mouse IgG-HRP and 3,3′,5,5′-Tetramethylbenzidine (TMB) substrate. Signals were normalized to the corresponding positive control antibody.
Table 38 lists the calculated EC₅₀ based on the binding data from FIG. 24.

[2] = biological target: T2, extracellular domain (ECD) of human DLL3 (AdipoGen Life Sciences) (human, UniProt Q9NYJ7 27-492); assay: SPR (Biacore 8K), 37 C, antibody captured on anti-mouse Fc, DLL3 ECD injected, 1:1 fit
T2 construct: Bought and further purified by size exclusion chromatography; also called hDLL3 ECD; DLL3 ECD
T2 sequence: T1 sequence
Text: The binding kinetics of different anti-DLL3 antibodies to recombinant proteins of different domains of human DLL3 were studied by surface plasmon resonance (SPR) using a Biacore™ 8K instrument. These anti-DLL3 antibodies were produced from mouse hybridomas, and each included a heavy chain variable region and light chain variable region described herein. Briefly, antibodies recognizing human IgG Fc and antibodies recognizing mouse IgG Fc were immobilized on different channels of a Biacore™ 8K chip to allow simultaneous analysis of human and murine anti-DLL3 antibodies. Murine anti-DLL3 antibodies were captured on the anti-mouse Fc channel of the Biacore chip. The human anti-DLL3 antibody from Stemcentrx (San Francisco, Calif.) was used as a control and was captured onto anti-human Fc channel of the Biacore™ chip. Different concentrations of DLL3 ECD, DLL3 N-terminal domain, EGF2-6, EGF3-6, EGF4-6, or EGF5-6 domains of DLL3 were injected. Experiments were performed at 37° C. Biacore™ 8K evaluation software was used for all data analysis. To obtain kinetic rate constants double-referenced data were fit to a 1:1 interaction model using Biacore™ 8K Evaluation software (GE Healthcare, Marlborough, Mass.). The equilibrium binding constant KD was determined by the ratio of binding rate constants kd/kₐ.
Table 36 lists the calculated binding kinetics (KD). […] Stemcentrx anti-DLL3 antibody was used as a control.

recombinant human DLL1 = biological target: T3, recombinant human DLL1 (human, UniProt O00548 18-540, limits assumed); assay: ELISA, plate-bound recombinant human DLL1 (1 µg/mL), anti-mouse IgG-HRP/TMB, % of positive control max
T3 sequence (looked up): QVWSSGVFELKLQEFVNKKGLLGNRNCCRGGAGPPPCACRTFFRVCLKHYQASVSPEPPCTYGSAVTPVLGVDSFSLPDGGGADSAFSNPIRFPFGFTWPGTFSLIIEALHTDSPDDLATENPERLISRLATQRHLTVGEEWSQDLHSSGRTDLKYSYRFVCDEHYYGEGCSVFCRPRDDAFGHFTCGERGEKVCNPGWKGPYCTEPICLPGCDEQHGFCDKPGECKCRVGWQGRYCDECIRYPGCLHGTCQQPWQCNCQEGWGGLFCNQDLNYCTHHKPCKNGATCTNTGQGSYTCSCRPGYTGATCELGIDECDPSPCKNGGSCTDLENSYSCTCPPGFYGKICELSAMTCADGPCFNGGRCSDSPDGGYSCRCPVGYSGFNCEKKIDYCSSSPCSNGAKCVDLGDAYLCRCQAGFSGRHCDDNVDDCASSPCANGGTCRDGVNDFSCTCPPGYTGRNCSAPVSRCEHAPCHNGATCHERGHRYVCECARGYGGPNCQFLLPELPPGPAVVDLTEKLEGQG
Protocol: as §1

human DLL3-His = biological target: T4, human DLL3-His (human, UniProt Q9NYJ7 27-492); assay: SPR (Biacore 8K), 37 C, antibody captured on anti-human Fc, DLL3-His 0.411-300 nM injected, 1:1 fit
T4 construct: also called hDLL3
T4 sequence: T1 sequence
Text: The kinetics of binding of different humanized variants and parental murine 5E7 antibody to human DLL3-His was studied by Surface Plasmon Resonance using a Biacore 8K instrument. Briefly, anti-hFc and anti-mFc IgG proteins were covalently immobilized onto different channels of CMS chip to allow simultaneous analysis of human and murine antibodies. m5E7 was captured on the anti-mouse Fc channel and humanized variants were captured on the anti-human Fc channel at a desired capture level of […] in HBS-EP+ buffer supplemented with 0.1% BSA. Three buffer blanks and human DLL3-His (analyte) at concentrations 0.411-300 nM (in three fold dilutions) were injected over the surface with captured murine or humanized 5E7 for 300 second association time and let dissociate for 600 second at a flow rate of 30 μL/min. The surfaces were subjected to regeneration with three 20-second pulses of 10 mM glycine pH 1.70 at a flow rate of 100 μL/min between every concentration of analyte. The experiment was conducted at 37° C. Data were double referenced and a 1:1 fit model was applied to the sensorgrams in the Biacore Insight Evaluation software.
The kinetic parameters of human DLL3-His binding to murine and humanized variants of 5E7 antibody variants were calculated and shown in Table 39.

[3] = biological target: T5, recombinant human NKG2D-Fc fusion protein (human, UniProt P26718 73-216); assay: ELISA, plate-bound recombinant human NKG2D-Fc, anti-human kappa-HRP/TMB
T5 construct: extracellular domain; also called NKG2D-Fc-biotin; not shown: human IgG1 Fc domain
T5 sequence (looked up): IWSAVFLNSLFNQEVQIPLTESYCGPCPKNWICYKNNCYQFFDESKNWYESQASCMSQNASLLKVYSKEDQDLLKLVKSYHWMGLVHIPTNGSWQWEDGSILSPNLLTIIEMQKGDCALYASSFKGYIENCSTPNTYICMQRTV
Text: (§2) The nucleic acid sequences of human, mouse or cynomolgus NKG2D ectodomains were fused with nucleic acid sequences encoding human IgG1 Fc domains and introduced into mammalian cells to be expressed. After purification, NKG2D-Fc fusion proteins were adsorbed to wells of microplates. After blocking the wells with bovine serum albumin to prevent non-specific binding, NKG2D-binding domains were titrated and added to the wells pre-adsorbed with NKG2D-Fc fusion proteins. Primary antibody binding was detected using a secondary antibody which was conjugated to horseradish peroxidase and specifically recognizes a human kappa light chain to avoid Fc cross-reactivity. 3,3′,5,5′-Tetramethylbenzidine (TMB), a substrate for horseradish peroxidase, was added to the wells to visualize the binding signal, whose absorbance was measured at 450 nm and corrected at […]. An NKG2D-binding domain clone, an isotype control or a positive control (comprising heavy chain and light chain variable domains selected from SEQ ID NOs:101-104, or anti-mouse NKG2D clones MI-6 and CX-5, eBioscience, San Diego, Calif.) was added to each well.

[4] = biological target: T6, recombinant mouse NKG2D-Fc fusion protein (mouse; human, UniProt O54709 90-232); assay: ELISA, plate-bound recombinant mouse NKG2D-Fc, anti-human kappa-HRP/TMB
T6 construct: extracellular domain; also called Mouse NKG2D-Fc-biotin; not shown: human IgG1 Fc domain
T6 sequence (looked up): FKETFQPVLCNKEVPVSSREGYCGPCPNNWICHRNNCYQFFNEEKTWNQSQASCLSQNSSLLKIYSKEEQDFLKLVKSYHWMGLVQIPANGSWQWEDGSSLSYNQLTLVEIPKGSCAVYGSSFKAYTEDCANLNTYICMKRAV
Text: as §2

[5] = biological target: T7, recombinant cynomolgus NKG2D-Fc fusion protein (cynomolgus; human, UniProt P61252 73-216); assay: ELISA, plate-bound recombinant cynomolgus NKG2D-Fc, anti-human kappa-HRP/TMB
T7 construct: extracellular domain; not shown: human IgG1 Fc domain
T7 sequence (looked up): T5 sequence (looked up) with D43N, T133I
Text: as §2

B1: anti-DLL3 antibody clone 9E6 (antibody, V domains shown)
VH: QLQLVQSGPELMRPGETVKISCKASGYTFTTYGMNWVKQAPGKGLKWVGWINTYSGVPTYADDFKGRFAFSLESSASTAFLQINNLKDEDTATYFCARFGNYGFDCWGQGTTLTVSS
VL: DIVMTQSPSSLSVSAGEKVTMSCKSSQSLLNSGNQKNYLAWYQQKPGQPPKLLIYGASTRESGVPDRFTGSGSGTDFTLTISSVQAEDLAVYYCQNDHIYPYTFGGGTKLEIK
notes: Murine antibody from a mouse hybridoma
EC50 [1]: 0.45 nM
Kd [2]: 5.11 nM
koff [2]: 0.00208 s⁻¹
kon [2]: 408000 M⁻¹ s⁻¹
binding result (recombinant human DLL1): no binding

B2: anti-DLL3 antibody clone 10F5 (antibody, V domains shown)
VH: B1 VH
VL: B1 VL
notes: as for B1
EC50 [1]: 0.64 nM
binding result (recombinant human DLL1): no binding

B3: humanized anti-DLL3 antibody h5E7-YD-A6 (antibody, V domains shown)
VH: QVQLVQSGAEVKKPGASVKVSCKASGFNIKDDYIHWVRQAPGQGLEWMGWIDSENGDTEYASKFQGRVTITADTSANTAYMELSSLRSEDTAVYYCATSSYWSYDLFVYWGQGTLVTVSS
VL: DVQMTQSPSSLSASVGDRVTITCKSSQSLLHSNGKTYLNWLQQKPGQAPKLLLYLVSKLESGVPSRFSGSGSGTDYTLTISSLQPEDFATYYCLQTTHLYTFGQGTKLEIK
notes: Expressed as IgG1 mAb: human IgG1 CH1-CH2-CH3 and human constant kappa; also called A6 variant
Kd (human DLL3-His): 1.1 nM
koff (human DLL3-His): 0.000434 s⁻¹
kon (human DLL3-His): 396000 M⁻¹ s⁻¹

B7: ADI-27705 (antibody, V domains shown)
VH: QVQLQQWGAGLLKPSETLSLTCAVYGGSFSGYYWSWIRQPPGKGLEWIGEIDHSGSTNYNPSLKSRVTISVDTSKNQFSLKLSSVTAADTAVYYCARARGPWSFDPWGQGTLVTVSS
VL: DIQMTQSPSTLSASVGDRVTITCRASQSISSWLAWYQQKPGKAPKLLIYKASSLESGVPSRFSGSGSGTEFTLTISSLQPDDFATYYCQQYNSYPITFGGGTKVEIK
EC50 (read off the curve) [3]: ~0.6 nM
binding result [4]: binds
binding result [5]: binds

B8: ADI-27724 (antibody, V domains shown)
VH: B7 VH
VL: not shown
EC50 (read off the curve) [3]: ~10 nM
EC50 (read off the curve) [4]: ~8 nM
EC50 (read off the curve) [5]: ~10 nM

Next, values leading:

Kd (human DLL3-His): 3.35 nM
koff (human DLL3-His): 0.00137 s⁻¹
kon (human DLL3-His): 409000 M⁻¹ s⁻¹
B4: humanized anti-DLL3 antibody h5E7-YD-C6 (antibody, V domains shown)
VH: B3 VH with S100E, W102Y
VL: B3 VL
notes: Expressed as IgG1 mAb: human IgG1 CH1-CH2-CH3 and human constant kappa; also called C6 variant

Kd (human DLL3-His): 1.29 nM
koff (human DLL3-His): 0.000405 s⁻¹
kon (human DLL3-His): 312000 M⁻¹ s⁻¹
B5: humanized anti-DLL3 antibody h5E7-YD-F3 (antibody, V domains shown)
VH: B3 VH with F107L
VL: B3 VL
notes: Expressed as IgG1 mAb: human IgG1 CH1-CH2-CH3 and human constant kappa; also called F3 variant

Kd (human DLL3-His): 0.27 nM
koff (human DLL3-His): 0.00013 s⁻¹
kon (human DLL3-His): 474000 M⁻¹ s⁻¹
B6: humanized anti-DLL3 antibody h5E7-YD-B5 (antibody, V domains shown)
VH: B3 VH with S100T
VL: B3 VL
notes: Expressed as IgG1 mAb: human IgG1 CH1-CH2-CH3 and human constant kappa; also called B5 variant

binding result [3]: binds
binding result [4]: binds
binding result [5]: binds
B9: ADI-27741 (antibody, V domains shown)
VH: B7 VH
VL: DIQMTQSPSTLSASVGDRVTITCRASQSIGSWLAWYQQKPGKAPKLLIYKASSLESGVPSRFSGSGSGTEFTLTISSLQPDDFATYYCQQSNSYYTFGGGTKVEIK

binding result [3]: binds
binding result [4]: binds
EC50 (read off the curve) [5]: ~1 nM
B10: ADI-28226 (antibody, V domains shown)
VH: B7 VH
VL: DIQMTQSPSTLSASVGDRVTITCRASQSISSWLAWYQQKPGKAPKLLIYKASSLESGVPSRFSGSGSGTEFTLTISSLQPDDFATYYCQQYGSFPITFGGGTKVEIK
notes: also called C26
